Here are results for 1 protein from PMC4995436, “Characterization of a novel low-temperature-active, alkaline and sucrose-tolerant invertase” (Scientific Reports, 2016).

Substrate in the data set: OC[C@H]1O[C@@](CO)(O[C@H]2O[C@H](CO)[C@@H](O)[C@H](O)[C@H]2O)[C@@H](O)[C@@H]1O
Nature of the data set: initial-rate kinetics, DNS reducing sugar assay, Michaelis-Menten fit. It is filed as biochemical, Bacillus sp. HJ14. Particulars: 30 °C, McIlvaine buffer pH 8.0, 1.5-36.5 mM sucrose. The source says: initial-rate kinetics, DNS reducing sugar assay, Michaelis-Menten fit on rInvHJ14 (InvHJ14)

B1: rInvHJ14 (InvHJ14) (Bacillus sp. HJ14) (protein)
chain: MTTTDAALRQKIADRIRNYEHLVKKDVYRQHFHLMPPVGLLNDPNGLIQWKGIYHVFYQWQPFKTGHGAKFWGHYTSTDLVNWQHEEAALAPSDWFDQNGCYSGSAFIDDGQMHVMYTGNVRDEQGNRETYQCLAVSEDGIHFQKKGVVATLPEGFTAHFRDPKVWKRNGQWYMVLGAQSLDLKGHLVLFTSDTLDNWTFQGTIAGSGKNGLDNFGYMWECPDLFELDGRDVLIVSPQGLEPDGLKYHNTHQSGYFVGTLDDHSYQYTHGAFEELDRGFDFYAQQTFLDESGRRLLIGWMGVPDQGEEHHPTISYQWIHCLTIPRELRLDEDGHLIQKPVSELQSMRTNEQEHVFHIKRSVHSIPVEDITSAEVFIDQIDTQKGFECCIRAAARIIYDKEEGKLTLERDRFEDRSKEVREAVIEELHDLHIFIDSSSIEIFVNGGREVFTARYFPSPGNKSISISGRNETKLKLKAWHLQREADQ
notes: pEASY-E2 vector, E. coli BL21 (DE3), Ni-NTA purified, approximately 58 kDa on SDS-PAGE
As a reminder, the Km is the concentration of substrate that gives half-maximal velocity. For orientation: Vmax means the top rate of the reaction or transport when substrate is in excess. Usually kcat stands for the number of substrate molecules converted per active site and unit of time at saturation. By kcat/Km is commonly meant the turnover number divided by the Michaelis constant. With B1, the Km was 62.9 mM, the Vmax was determined as 772 µmol/min/mg, the kcat was 746 s⁻¹ and the kcat/Km is 11900 M⁻¹ s⁻¹.
